The values that follow come from patent EP3418383A1, “MODIFIED L-ASPARAGINASE” (XL-protein GmbH, priority 2017, dated 2018).

The nature of data set [1]: L-asparaginase aminohydrolase activity, Nessler reagent assay (Example 1). The following applies: for Enzyme activity compared to the equally assayed non-modified Crisantaspase: Nessler assay of Example 1. In kind it is biochemical. As to the method: The modified proteins were purified by anion exchange chromatography (AEX) on a MonoQ HR5/5 column (GE Healthcare) using 25 mM Na-borate pH 9.0, 1 mM EDTA as running buffer and a NaCl concentration gradient from 0 to 1 M to elute the proteins. L-asparaginase aminohydrolase activity of each Crisantaspase modified protein was determined by reaction of ammonia that is liberated via L-asparagine enzymatic activity with the Nessler reagent. Briefly, 50 µL of enzyme solution was mixed with 20 mM of L-asparagine in a 100 mM sodium borate buffer pH 8.6 containing 0.015 % (w/v) bovine serum albumin and incubated for 15 min at 37 °C. The reaction was stopped by addition of 200 µL of Nessler reagent (Sigma-Aldrich). Absorbance of this solution was measured at 450 nm. The activity was calculated from a calibration curve that was obtained from ammonium sulphate as reference. Table 2: Enzymatic activities of Crisantaspase conjugated with Pga-P/A(20)-Ahx peptide in different amounts

The nature of data set [2]: L-asparaginase enzyme activity, Nessler endpoint assay, specific activity (Example 8). The following applies: Crisantaspase expression system E. coli; for Nessler (Average): average of plates 1-3; for Nessler Plate 1 / Nessler Plate 2 / Nessler Plate 3: specific activity. In kind it is biochemical. As to the method: PASylated L-asparaginase enzyme activity was determined by catalysis of the conversion of L-asparagine into L-aspartic acid. This reaction liberates one mole of ammonia per mole of converted L-asparagine. The released ammonia is detected using Nessler's reagent. In the presence of Nessler's reagent the ammonia will form a watersoluble yellow complex that can be quantified by absorbance measurement at 450 nm (Mashburn et al. (1963) Biochem. Biophys. Res. Commun. 12, 50). One unit of L-asparaginase enzyme activity (International Unit or IU) is defined as the amount of enzyme that catalyzes the conversion of one µmol of L-asparagine per minute. The specific activity of the samples (IU/mg) is determined by dividing the value of L-asparaginase activity expressed in IU/mL by the protein concentration expressed in mg/mL. The mass of the protein monomer with the PASylated sequence was measured.
The measurement of L-asparaginase activity is based on an endpoint assay in which the sample is diluted to a series of final enzyme concentrations which are then incubated at 37°C under saturating L-asparagine concentration for 15 minutes. The reaction is stopped by addition of Nessler's reagent and the amount of ammonia produced by the reaction is extrapolated from a calibration curve constructed from known quantities of ammonium sulfate used as standard. A plot of enzyme concentration versus ammonia is then created for each sample and the slope of the curve divided by the reaction time to obtain the specific activity in IU/mg. Specific activity is reported as IU/mg and is reported to the nearest whole number.

Data set [3] in a line: Analytical gel filtration (SEC), hydrodynamic volume / apparent molecular size. The note with it: tetramer, Superdex S200 10/300 GL, PBS, 1 mg/ml. Format: physicochemical. The source says: In order to avoid polymerization of the peptides upon chemical activation of the C-terminus, the N-terminus was protected with pyroglutamyl (Pga) residue. Aminohexanoic acid (Ahx) was incorporated at the C-terminus of the peptides to serve as linker. […] The hydroxybenzotriazol (HOBt) active ester of the peptide is subsequently used to derivatize the amino groups (ε-amino groups of lysine residues or α-amino group of N-terminus) of Crisantaspase with the P/A peptide through formation of peptide or isopeptide bonds, while free HOBt is released. This coupling step is performed in aqueous solution (e.g. PBS buffer) with a content of organic solvent ≤ 30 %. […] The number of coupled P/A peptides can be determined by counting the bands in that ladder starting from the unconjugated Crisantaspase as marked on the right. […] Separation of remaining uncoupled peptide and other non-proteinous byproducts of the chemical conjugation devoid of UV absorption at 280 nm was monitored by the 225 nm UV trace. […]
In general terms: SEC sorts molecules by how far they enter the pores of the column.

Data set [4] in a line: Pharmacokinetics, plasma asparaginase activity after single IV bolus dose. Format: in vivo. The following applies: single IV bolus 25 IU/kg body weight, male CD-1 mice, non-compartmental. As to the method:
The pharmacokinetic profile of E. coli expressed recombinant crisantaspase as a PASylated fusion protein (PA-200) or chemically conjugated to PA-peptides (PA-20) was characterized following administration of a single intravenous bolus dose to CD-1 mice. The CD-1 mice is a model for a healthy mouse.
All animals received a single intravenous (IV) bolus via the lateral tail vein (10 mL/kg) based on the body weight taken prior to dosing. Individual doses were calculated based upon the most recent individual body weights to provide the proper dose. The first day of dosing was based on study day 0 body weights.
PASylated asparaginase was administered as a single IV dose of 25 IU/kg body weight to mice. […] Asparaginase activity in mouse plasma was measured using a qualified biochemical assay as described in the previous examples. […]
Asparaginase activity was measured as the concentration of asparaginase in the plasma samples as previously described (Allas et al. (2009) Blood, 114, 2033). […] The plasma asparaginase activity versus time data were analyzed using non-compartmental methods with sparse sampling in an IV bolus administration model. Activity values below the limit of quantitation of the assay (10 U/L) were set to zero in the calculation of group means. […]

For data set [5] the following is noted: PEGylated enzyme compared to the unmodified L-asparaginase; cited from earlier work.
The conditions of data set [6]: children who received the drug; cited from earlier work.
Setting [7] is: 3.5 mg PA peptide/mg Crisantaspase, 10.4 mol PA peptide/mol monomer.
[8] abbreviates: 5 mg PA peptide/mg Crisantaspase, 11.2 mol PA peptide/mol monomer.
Where [9] appears, read: 7.5 mg PA peptide/mg Crisantaspase, 11.7 mol PA peptide/mol monomer.
Where [10] appears, read: 10 mg PA peptide/mg Crisantaspase, 12.0 mol PA peptide/mol monomer.

With “Pyroglutamoyl-P/A(20)-aminohexanoyl-Crisantaspase”, the Rel. activity in data set [1] (setting [7]) was 94.1%; in data set [1] (setting [8]) it was 80.7%; in data set [1] (setting [9]), 74.3%; in data set [1] (setting [10]), 47.4%. Moreover, the Specific activity in data set [1] (setting [7]) is 508 ± 20 U/mg; in data set [1] (setting [8]), 436 ± 22 U/mg; in data set [1] (setting [9]), 401 ± 21 U/mg; in data set [1] (setting [10]), 256 ± 20 U/mg.
Broadly, the t½ is how long it takes for the measured level to halve. A higher t½ goes with slow loss. On to “Pyroglutamoyl-P/A(20)-aminohexanoyl-Crisantaspase [Crisantaspase/PA(20) modified protein]”, for which the “Enzyme activity compared to the equally assayed non-modified Crisantaspase” value in data set [1] turned out to be 91.2%. Also, in data set [2], the “Nessler (Average)” value stood at 676 IU/mg, the “Nessler Plate 1” value turned out to be 694 IU/mg, the “Nessler Plate 2” value is 732 IU/mg and the “Nessler Plate 3” value is on record as 602 IU/mg. Further, the apparent molecular size in data set [3] was found to be 531 kDa. In addition, in data set [4], the t½ amounted to 50.2 h.
With “Pyroglutamoyl-P/A(40)-aminohexanoyl-Crisantaspase [Crisantaspase/PA(40) modified protein]”, in data set [1], the “Enzyme activity compared to the equally assayed non-modified Crisantaspase” value is recorded as 78.2%. Further, in data set [2], the “Nessler (Average)” value was 528 IU/mg, the “Nessler Plate 1” value was 567 IU/mg, the “Nessler Plate 2” value stood at 528 IU/mg and the “Nessler Plate 3” value worked out at 490 IU/mg. For the same molecule, in data set [3], the apparent molecular size came to 820 kDa.

B1: Oncaspar®: E. coli L-asparaginase modified at multiple lysine residues using 5 kDa mPEG-succinimidyl succinate (conjugate, UniProt P00805 23-348, looked up)
L-asparaginase 2: LPNITILATGGTIAGGGDSATKSNYTVGKVGVENLVNAVPQLKDIANVKGEQVVNIGSQDMNDNVWLTLAKKINTDCDKTDGFVITHGTDTMEETAYFLDLTVKCDKPVVMVGAMRPSTSMSADGPFNLYNAVVTAADKASANRGVLVVMNDTVLDGRDVTKTNTTDVATFKSVNYGPLGYIHNGKIDYQRTPARKHTSDTPFDVSKLNELPKVGIVYNYANASDLPAKALVDAGYDGIVSAGVGNGNLYKSVFDTLATAAKTGTAVVRSSRVPTGATTQDAEVDDAKYGFVASGTLNPQKARVLLQLALTQTKDPQQIQQIFNQY
modifications: 5 kDa mPEG succinimidyl succinate
notes: E. coli L-asparaginase modified at multiple lysine residues using 5 kDa mPEG-succinimidyl succinate
For the molecule B1, in data set [5], the in vitro activity entry is on record as “approximately 50%”. Besides, in data set [6], the “children who had an allergic reaction” value is recorded as 30-41%.
